Assay results reported in US20180343839A1 (BROAD INSTITUTE, published 2018).

Biological target: RAB28 (human, UniProt P51157 2-218)
Assay: CRBN interaction study (HA-CRBN immunoprecipitation, SILAC MS); assay not given

B1: HA-CRBN (hemagglutinin (HA)-tagged human CRBN) (other)
chain: MAGEGDQQDAAHNMGNHLPLLPESEEEDEMEVEDQDSKEAKKPNIINFDTSLPTSHTYLGADMEEFHGRTLHDDDSCQVIPVLPQVMMILIPGQTLPLQLFHPQEVSMVRNLIQKDRTFAVLAYSNVQEREAQFGTTAEIYAYREEQDFGIEIVKVKAIGRQRFKVLELRTQSDGIQQAKVQILPECVLPSTMSAVQLESLNKCQIFPSKPVSREDQCSYKWWQKYQKRKFHCANLTSWPRWLYSLYDAETLMDRIKKQLREWDENLKDDSLPSNPIDFSYRVAACLPIDDVLRIQLLKIGSAIQRLRCELDIMNKCTSLCCKQCQETEITTKNEIFSLSLCGPMAAYVNPHGYVHETLTVYKACNLNLIGRPSTEHSWFPGYAWTVAQCKICASHIGWKFTATKKDMSPQKFWGLTRSALLPTIPDTEDEISPDKVILCL
notes: the clone used (Broad ORF007943.1_s300c1); its numbering fits V387, Y383 and W385 as printed; also called HA-tagged CRBN; HA-CBRN; not shown: HA tag
- binding result: no binding
